The record followed here is the DeepSol protein solubility set.

The data set in a line: soluble on expression in E. coli; label from the status in PepcDB or PDB records.
On to “MGQAGKQVAPVKCKGWAVEKPALKWSTDAVRLSDVTVPAPDPTQIRVRVYAASINPVDWKRVMFPASGSGPGVAGSALKGFKGMHHKPPNYPYPYVVGVDGAGEVESVGRKVTGLKAGDRVMFHSSLTNAHGGSLCEYAVMEESVAVPIPADGARPFSYEEAAAIPCATWTAYVALFDKLRIEPGRSIFVDGASGAVGSCAVQLAHHMGLYVFASCSPSNADYVRSIGADQVLNYHDGIEMVDQILDATEGYGVDYYLAVTNTQDAESFTDALRFGGAVCLLSGVLIPNSNVLFRRQLSVHYVFLNGLHGHPLTRPQLRYIGDQVAKLYQSGAFRLD”, for which the “soluble on expression in E. coli” value is “not soluble”.
In the case of “MSLNMTSKETKEGLAGYFSSDAAKMQSNNVSPVANNPFVQSTDKLDTRDFKITEVERSHYAIAQKLRQMLMADATPQSASGISADDVGVQLRVNSDIMYAPGSAELAPEGAKVLDDVIRILKEYNLYLVVRGHTDSGEPRNSIYPSNWELSGARAAAAVRYIITHGEIKPTRLRSIAYADTRPLEPNTSPDSRAKNRRVEFYFHRPEVMSYSVVYEGHHHHHH”, the “soluble on expression in E. coli” value is given as “soluble”.
The result for “MSLKDVSLSSFDAHDLDLDKFPEVVRDRLTQFLDAQELTIADIGAPVTDAVAHLRSFVLNGGKRIRPLYAWAGFLAAQGHKNSSEKLESVLDAAASLEFIQACALIHDDIIDSSDTRRGAPTVHRAVEADHRANNFEGDPEHFGVSVSILAGDMALVWAEDMLQDSGLSAEALARTRDAWRGMRTEVIGGQLLDIYLESHANESVELADSVNRFKTAAYTIARPLHLGASIAGGSPQLIDALLHYGHDIGIAFQLRDDLLGVFGDPAITGKPAGDDIREGKRTVLLALALQRADKQSPEAATAIRAGVGKVTSPEDIAVITEHIRATGAEEEVEQRISQLTESGLAHLDDVDIPDEVRAQLRALAIRSTERREGHHHHHH” reads “soluble”.
With “MERELAHWVERLRERAEAEGLSFPPVAFQEVGPEEMAMLAAYGGFPRRYPHWRWGSAYLHYRETYRYGLARIYELVVNTVPVQAYLLRGNPLLAQKLVVAHVYAHADFFQNNLAFKPIPKDMLAEMAHHAAYVERAMERHGARSVEEFLDLALSLENLIDPHAPYIQRPAQKEEEAPKRLPVRPYLDPYVNPAPAFPKEAEEGASPEPLPPRPTRDILGFLARHAPLAPWQKGILEIVREESLYFAPQAATKILNEGWATYWHTRLLLPLLTPEEALEFAEMQANLLAPHGLNPYRLGYHLLMEVEERWDKGRFGPEYEALPLGERLRYERPTGEGRKKLFQVRTVYTDLNFLEEFLTPEFALRRGLFALEDLPRFAEAKKALLFRLTNLGYPIVELVDANYQNRGELLLAHAYEGVELDLRKTKAVLENLHRLWGRPVHLKTVVGGKETLLSAGA”, the “soluble on expression in E. coli” value was “soluble”.
Regarding “DLAKEGKLHSIVDSLFYSRLYKKEKRVYGDTDYDRFDFFTNRFLQSFNKAAFDDFFSSRVEYPNQIKILFQMFFTKMEKLKTD”, the “soluble on expression in E. coli” value is “not soluble”.
The result for “MAHHHHHHMDAERGCRQCGQQGHSASQCRIKKYLCRDCGGMHDTRDCIFSHVGEDWYEFYDPKTRHVYYANSDESQIQWNPPTHELDTIYWYCSRCQVMISAKFRECLLCHSIRPESKQQETLTTDSNSDSSSSSSTSSSSSSTDTSCISRSSSSSGSASSSDSSSNDDDKRSAAGRLRDRAP” reads “soluble”.
Turning to “MKICTMGLGYIGLPTSAMFAKYGTEVVGVDIHQKVVDKLNNGEIHIEEPGLGEVVKEVVANGKFRASLTPEEADAFIISVPTPNHDDEHKSCDLSYVLTATEKVLPFVKKGNVIIVESTIAPRSMDDYVKPLVEEAGFTVGEDIYLVHCPERVLPGQILHELVHNNRIVGGVTPACAEAGARVYGVFVEGEIIKTNAKTAEMSKLMENTFRDVNIALANELTKVCNSLDINVLDVIEMANKHPRVNLHYPGPGVGGHCLAVDPYFIVAKAPELANIIKLSRETNVSMPHYVTEKVKELLAGVENPKVAAFGVTYKGNVDDMRESPAMDVIDLIRNEGITVSAHDPHVESDFFELHSAEEAVKDAHLILVLTDHDEFKTMNYDSLAPYMAKTVVFDTRNCVQAVSTGEMKIINFGTLYEALNKNVMMV”, the “soluble on expression in E. coli” value is reported as “not soluble”.
Turning to “MPQFSNRRRVPHSAQQMFDLVADVERYPQFVPLCKALKIRERIQQPDGNEVVIADMTVSFKLVQETFTSRVTLDRANLKILVEYLKGPFSNLENRWTFAAKTERACEVGFFIAYEFKSRMLATLMGAMFDTAFHRFAEAFETRADQIYGTGPKLSRALEHHHHHH”, the “soluble on expression in E. coli” value is on record as “not soluble”.
The result for “FEKVYHLKLSIKGITPQIWRRIQVPENYTFLDLHKAIQAVMDWEDYHLHEFEMVNPKTGMLDKIGAEGDDFDAFGGPLVSEKKAKLSDYFTLENKEALYTYDFGDNWQVKVRLEKILPRKEGVEYPICTAGKRAAVPEDSGGVWGYEEMLEVLKDSEHEEYEDTVLWLGDDFDPEYFDPKDVS” reads “not soluble”.
“MGIAEWRYQDVPEKLWPIQPLRDFWGINKRTEKKLNKRGIFTIGDLAKYPYHYLKRDFGVLGIDMHLHANGIDQSKLEHHHHHH”: the “soluble on expression in E. coli” value is recorded as “not soluble”.
The entry for “MSLLKLFDAHFHIIDYRFPLIANQSYLPPEFTVEDYLQRAKPLNICGGAVVSGSFQAFDQTYLLTALSVLGPNFVGVTQLPATVSDEEIIQLNQHGIRAVRFNLKRGGSESIHQLKYFAHRIYEMVRWHVEIYVDSKELGDLTNLLLELPAVSIDHLGLSQSGFSELLHLVEHGIKIKASGFGRVDFDVKKALQTIAQISPDALLFGTDLPSTRAPLPFLDSDIQLIQDLFDEELTEKILYRNACNFYSKNEGHHHHHH” is “soluble”; for “MGSDKIHHHHHHMVRPQRNKKRFILILNGVWNLEVTSKDRPIAVPGSWNEQYQDLCYEEGPFTYKTTFYVPKELSQKHIRLYFAAVNTDCEVFLNGEKVGENHIEYLPFEVDVTGKVKSGENELRVVVENRLKVGGFPSKVPDSGTHTVGFFGSFPPANFDFFPYGGIIRPVLIEFTDHARILDIWVDTSESEPEKKLGKVKVKIEVSEEAVGQEMTIKLGEEEKKIRTSNRFVEGEFILENARFWSLEDPYLYPLKVELEKDEYTLDIGIRTISWDEKRLYLNGKPVFLKGFGKHEEFPVLGQGTFYPLMIKDFNLLKWINANSFRTSHYPYSEEWLDLADRLGILVIDEAPHVGITRYHYNPETQKIAEDNIRRMIDRHKNHPSVIMWSVANEPESNHPDAEGFFKALYETANEMDRTRPVVMVSMMDAPDERTRDVALKYFDIVCVNRYYGWYIYQGRIEEGLQALEKDIEELYARHRKPIFVTEFGADAIAGIHYDPPQMFSEEYQAELVEKTIRLLLKKDYIIGTHVWAFADFKTPQNVRRPILNHKGVFTRDRQPKLVAHVLRRLWSEV” it is “not soluble”.
For the sequence “MPEASHPDHLIRAGRLQADDARLFTPEADGPADQTPPDEPGWLVTLATWKAAAATLRARRHPVGVQLPPDARLDELTGPDGELDRAALSFIAIEFPVYTDGRGYSLAQLLRRRYGWDGELRAVGDVMIDTIHYQARVGFDSFLVKPGHDPQRALAAFRTFSVHYQHTYPAPLAA”, the “soluble on expression in E. coli” value is “not soluble”.
On to “MNLDLTAQKVRLSWKDILWGYGNKYLGWADVAAYARKMTLSDHDERVFKLSLINKSNILELKPVLEDLASEMRDYSPKNWLYVLLSDVFHRKEEFEDPLGEVEKIYADFDYPEEIESFVRYMPPKDGYIPSAHTYEENIARLYSHWEHYLNNGGGQG”, for which the “soluble on expression in E. coli” value is listed as “not soluble”.
Consider “MGKLYVVPTPVGNLEDMTFRAIKVLKEADLILAEDTRTSGILLKHFEIKNVMQSHHKFNEHKTVESVVNRIKAGETIALISDAGTPGISDPGFLVVRECVRNGIEVQCLPGA”, for which the “soluble on expression in E. coli” value is “not soluble”.
The entry for “METSIFDDVETRIDNNEIIAQQHAEDLFELYLKIQNAEKDSVIDIRKEASADHEEMLCELRNDLSQVMKMGMVNLSMQIIAQERNNRRKVNQHIINIKSKTEEIDKFFQRAISVLGAPPGYPAKKEEKAKTKNYLIQFGEVLLSISTMVTNLEQSLACYELKEVLMNGMISQIRTQISDFNKVIPNFKRILNSENQEIDPDNYEKFVDMKKRLFAMVNCLHLISEKRGEMNRLIEEKMNLSMPQFQNLQISNGT” is “not soluble”; for “MIEIPSDLHKDLVPLVFLLGDWAGAGVHDFPGAEKCNFGQEVSFTHDGRDFLEYQSHTWVLDNDGNKVRPLESEHGFWRIDANRKVEVTMTRDDGVIEIWYGELADQKPQIDLVTDAVARTAASQPYTGGKRLYGYVKSDLMWVGEKQTPEVELRPYMSAHLKKVVTPEDVERWAKALPDDMPDDGIAFFKLEHHHHHH” it is “not soluble”.
With “MEQLSIQTDELQDQFSNCSPASVDSSYSSCSSVEDEIEIYTRLVRNEEPLRRDFFREMSKNSSCSSSFDYGEFGPSSSSRKGSKTTDADLDSLFHSLVETSDQVNTVPKPTKTEVESIPEEFEQKPSSSSHRLPSEMNASITHIKSELDPTMQAFQMPHNDLFLATAAPHYNPFALSNDFMPNPLMPSFTSPFYPQHFPVSDSRRGSQGTTSSSNNTGGTPSPHSSSLPTSPPQLQGFLRSFLNPDNLSTPTSFGVPSETALDADKMCAVCNDRAVCLHYGARTCEGCKGFFKRTVQKNSKYTCAGNKTCPIDKRYRSRCQYCRYQKCLEVGMVKEIVRHGSLSGRRGRLSSKTKLARSEDQPSPPLPLLALMGKAIEDHTNMTVVRQFMQPFDETIALRILHGELHATKKLLMAMPQISEIQPADFQILLSRSFFAIMAIRVANRCGNSTDTIMFESGELFSLNAFPACFQQIIRFMVDKARTFSSLVDWEPQAFAAFIALQFLAGNTEHNVLGLTNKPLVDQVQSTIINALKDHCSGSQNKLAKIVRLTQEFDVFHALGLQALDILYPSHQLPEEFMFLINLTRAPLRSTDAPPACGSPVAPSGSSLFNFQMGPAAF”, the “soluble on expression in E. coli” value was “not soluble”.
The entry for “MNDDKDVVIDQIYYISTDPSATTYPTTFSVSLVDNSVAGRPFFYVVGKSTMRVDRNTTLRVEEDSKLVEKYNETYGKKYLPFPEGTYSFSTNEVTINQGDNFSSDTIFISFSNWDKLSKIDKYLLPVSLKAVDDKGAVSMDRNLIYFIADFSTTNTGYNKPAAWKPLDRTDWDVSFSYAYGYDEAQFGGRLAVDGDVSTTWFTWGVVSAGECWWATTLPAPTHLTGFSLTRQTTFGSSYNVREAKVKVKKEGDTEWTEAGLFRFGSFKGNDPQYAVFIPAVENVKEFRIDIVSPADFTGFAELDLYQLEHHHHHH” is “not soluble”.
In the case of “MAHHHHHHMERVRYRSSVTRKLIDLYDEVAELYDCRENMRNQVTQAMRIDPRYCKERHGEVRLACKPTLQQQSAVESVENALEGLHDAVHELVAAYLTQEEKRHLGIDTHLFQTSTEKANTYQYAPPPPKPRSSSSNAARRARQKTSAAATFPHPSTRHREVRVEKEEGDAHENTAATAPTPAAPTLTVPVDTPAPQQQPLTNTTTNKKISNSVWDSSAPAASAAFSSAAISLPASSVKLAQQSVVELSQLAAPQQPVTSSSQPLCSSIVHVAAPEKHEDGSGTAAEQKPVAASHTQDTEIAEGTPERVVASAVSASTLSVTWPTDTGAGSTLHLPTGSQPPLATERLLKVPVSSPDALTPIAKTPPAIPPRPTSVQAQAQEPALTSANPTPPPSHPPSQDAVAASCNDASAAKASASQARTAVVGFKRFLIDSDSNSSC”, the “soluble on expression in E. coli” value is “soluble”.
The result for “MSLRATWGDVRQGLWMSLTRAGLLHLNADPDPKNWRPHILVLSGAPRRRWPVIELASALTHNQALMTVGTVLRPSEASDFEAQREAEATLREYLGSRGVQSLVRTTTAEDPFAGGERLIEDYGLGVLKPNTIMLGHTEDPTHHEQFCTLIKHLYAARRNVAVLRGGNQGFGNRERIDVWWSGLKGNGGLMKILAYLLQTNLEWQNAQVRVNVVADDDEEAEEQRQTVGPILDQLRTGAALNVIEADGRIFDEIVHDASADADIVFLGMATPDEEGDYVTYYTRLHERTAGLPPTVFVLAAEEISFRDVLALEHHHHHH” reads “not soluble”.
